Data: PMC7793260, “MreC and MreD balance the interaction between the elongasome proteins PBP2 and RodA” (PLoS Genetics, 2020)

T1: RodA (wild type), fused to mCherry or to mKO (E. coli, UniProt P0ABG7 1-370)
T1 construct: RodA, peptidoglycan glycosyltransferase of the E. coli elongasome; wild-type rodA gene; mCh-RodA in all others; also called mCh-RodA; mKO-RodA; source: E. coli LMC500, expressed from plasmid (15 uM IPTG), in fixed cells; not shown: mCherry (acceptor construct, pSAV047-RodA) or mKO (donor construct, pXL56), N-terminal, kept
T1 sequence (looked up): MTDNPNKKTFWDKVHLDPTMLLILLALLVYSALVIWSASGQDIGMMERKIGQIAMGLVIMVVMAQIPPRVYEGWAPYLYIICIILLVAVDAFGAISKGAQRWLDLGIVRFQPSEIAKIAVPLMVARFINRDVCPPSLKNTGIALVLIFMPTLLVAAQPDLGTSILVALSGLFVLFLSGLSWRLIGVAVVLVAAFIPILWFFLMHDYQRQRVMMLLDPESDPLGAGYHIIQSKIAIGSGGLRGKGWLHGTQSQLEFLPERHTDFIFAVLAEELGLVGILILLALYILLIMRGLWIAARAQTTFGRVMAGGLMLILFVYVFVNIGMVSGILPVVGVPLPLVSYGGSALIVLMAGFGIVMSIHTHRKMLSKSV

T2: mKO-PBP2^L61R (E. coli, UniProt P0AD65 1-633, L61R)
T2 construct: PBP2 of E. coli with L61R (hyperactive variant); made from pWA004 by mutagenesis PCR; also called hyperactive PBP2^L61R; source: E. coli LMC500, expressed from plasmid (15 uM IPTG), in fixed cells; not shown: mKO, N-terminal, kept
T2 sequence (looked up): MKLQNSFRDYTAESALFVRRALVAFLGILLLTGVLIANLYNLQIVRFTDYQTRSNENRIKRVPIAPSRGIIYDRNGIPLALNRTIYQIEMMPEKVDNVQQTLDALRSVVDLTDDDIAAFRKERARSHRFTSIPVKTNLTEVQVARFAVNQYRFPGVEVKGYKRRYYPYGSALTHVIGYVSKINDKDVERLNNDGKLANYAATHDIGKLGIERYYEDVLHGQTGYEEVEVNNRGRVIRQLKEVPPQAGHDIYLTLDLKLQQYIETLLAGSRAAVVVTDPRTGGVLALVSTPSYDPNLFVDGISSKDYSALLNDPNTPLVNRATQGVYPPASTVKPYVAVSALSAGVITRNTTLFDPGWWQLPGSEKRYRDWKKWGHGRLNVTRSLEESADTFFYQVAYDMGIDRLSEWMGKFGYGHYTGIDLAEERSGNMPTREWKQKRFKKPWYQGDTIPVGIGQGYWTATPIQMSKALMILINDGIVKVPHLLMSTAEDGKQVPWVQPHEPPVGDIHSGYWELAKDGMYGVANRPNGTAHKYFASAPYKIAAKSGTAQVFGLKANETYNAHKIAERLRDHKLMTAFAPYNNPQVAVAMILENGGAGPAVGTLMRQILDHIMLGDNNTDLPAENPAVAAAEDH

B1: PBP2 (wild type), fused to mKO or to mCherry (enzyme, E. coli, UniProt P0AD65 1-633, looked up)
chain: MKLQNSFRDYTAESALFVRRALVAFLGILLLTGVLIANLYNLQIVRFTDYQTRSNENRIKLVPIAPSRGIIYDRNGIPLALNRTIYQIEMMPEKVDNVQQTLDALRSVVDLTDDDIAAFRKERARSHRFTSIPVKTNLTEVQVARFAVNQYRFPGVEVKGYKRRYYPYGSALTHVIGYVSKINDKDVERLNNDGKLANYAATHDIGKLGIERYYEDVLHGQTGYEEVEVNNRGRVIRQLKEVPPQAGHDIYLTLDLKLQQYIETLLAGSRAAVVVTDPRTGGVLALVSTPSYDPNLFVDGISSKDYSALLNDPNTPLVNRATQGVYPPASTVKPYVAVSALSAGVITRNTTLFDPGWWQLPGSEKRYRDWKKWGHGRLNVTRSLEESADTFFYQVAYDMGIDRLSEWMGKFGYGHYTGIDLAEERSGNMPTREWKQKRFKKPWYQGDTIPVGIGQGYWTATPIQMSKALMILINDGIVKVPHLLMSTAEDGKQVPWVQPHEPPVGDIHSGYWELAKDGMYGVANRPNGTAHKYFASAPYKIAAKSGTAQVFGLKANETYNAHKIAERLRDHKLMTAFAPYNNPQVAVAMILENGGAGPAVGTLMRQILDHIMLGDNNTDLPAENPAVAAAEDH
notes: PBP2, peptidoglycan transpeptidase of the E. coli elongasome, wild type; mKO-PBP2 in all others; also called mKO-PBP2^WT; mKO-PBP2; source: E. coli LMC500, expressed from plasmid (15 uM IPTG), in fixed cells; not shown: mKO (donor construct, pWA004) or mCherry (acceptor construct), N-terminal, kept

Legend:
Test in all cases: FRET or BRET; two-plasmid spectral FRET in E. coli LMC500 cells; mCherry fusion as acceptor, mKO fusion as donor; Gb4 medium, steady state at 28 C, 15 uM IPTG for two mass doublings, FAGA-fixed; acceptor FRET efficiency (EfA) by spectral unmixing
[1] = biological target: T1, RodA (wild type), fused to mCherry or …; details: partners not purified
[2] = biological target: B1; details: partners not purified
[3] = biological target: T2, mKO-PBP2^L61R; details: partners not purified
[4] = biological target: the molecule itself

| EfA (acceptor FRET efficiency) [2] | Binder | further results |
| --- | --- | --- |
|  | mCh-MreB^SW (natural protein, E. coli, UniProt P0A9X4 1-347, looked up, MreB of E. coli with mCherry inserted inside the chain (sandwich fusion); also called sandwich fusion of MreB-mCherry-MreB; source: E. coli LMC500, expressed from plasmid (15 uM IPTG), in fixed cells) MLKKFRGMFSNDLSIDLGTANTLIYVKGQGIVLNEPSVVAIRQDRAGSPKSVAAVGHDAKQMLGRTPGNIAAIRPMKDGVIADFFVTEKMLQHFIKQVHSNSFMRPSPRVLVCVPVGATQVERRAIRESAQGAGAREVFLIEEPMAAAIGAGLPVSEATGSMVVDIGGGTTEVAVISLNGVVYSSSVRIGGDRFDEAIINYVRRNYGSLIGEATAERIKHEIGSAYPGDEVREIEVRGRNLAEGVPRGFTLNSNEILEALQEPLTGIVSAVMVALEQCPPELASDISERGMVLTGGGALLRNLDRLLMEETGIPVVVAEDPLTCVARGGGKALEMIDMHGGDLFSEE | EfA (acceptor FRET efficiency) [1]: 7.2% |
| 5.1% | mCh-MreC (natural protein, E. coli, UniProt P16926 1-367, looked up) MKPIFSRGPSLQIRLILAVLVALGIIIADSRLGTFSQIRTYMDTAVSPFYFVSNAPRELLDGVSQTLASRDQLELENRALRQELLLKNSELLMLGQYKQENARLRELLGSPLRQDEQKMVTQVISTVNDPYSDQVVIDKGSVNGVYEGQPVISDKGVVGQVVAVAKLTSRVLLICDATHALPIQVLRNDIRVIAAGNGCTDDLQLEHLPANTDIRVGDVLVTSGLGGRFPEGYPVAVVSSVKLDTQRAYTVIQARPTAGLQRLRYLLLLWGADRNGANPMTPEEVHRVANERLMQMMPQVLPSPDAMGPKLPEPATGIAQPTPQQPATGNAATAPAAPTQPAANRSPQRATPPQSGAQPPARAPGGQ | EfA (acceptor FRET efficiency) [3]: 5.3% |
|  | B1 | EfA (acceptor FRET efficiency) [4]: 9.2% |
| 12.7% | mCh-RodA^Q207R (enzyme, E. coli, UniProt P0ABG7 1-370, looked up) MTDNPNKKTFWDKVHLDPTMLLILLALLVYSALVIWSASGQDIGMMERKIGQIAMGLVIMVVMAQIPPRVYEGWAPYLYIICIILLVAVDAFGAISKGAQRWLDLGIVRFQPSEIAKIAVPLMVARFINRDVCPPSLKNTGIALVLIFMPTLLVAAQPDLGTSILVALSGLFVLFLSGLSWRLIGVAVVLVAAFIPILWFFLMHDYRRQRVMMLLDPESDPLGAGYHIIQSKIAIGSGGLRGKGWLHGTQSQLEFLPERHTDFIFAVLAEELGLVGILILLALYILLIMRGLWIAARAQTTFGRVMAGGLMLILFVYVFVNIGMVSGILPVVGVPLPLVSYGGSALIVLMAGFGIVMSIHTHRKMLSKSV |  |
| 12.5% | mCh-RodA^R109A (enzyme, E. coli, UniProt P0ABG7 1-370, looked up) MTDNPNKKTFWDKVHLDPTMLLILLALLVYSALVIWSASGQDIGMMERKIGQIAMGLVIMVVMAQIPPRVYEGWAPYLYIICIILLVAVDAFGAISKGAQRWLDLGIVAFQPSEIAKIAVPLMVARFINRDVCPPSLKNTGIALVLIFMPTLLVAAQPDLGTSILVALSGLFVLFLSGLSWRLIGVAVVLVAAFIPILWFFLMHDYQRQRVMMLLDPESDPLGAGYHIIQSKIAIGSGGLRGKGWLHGTQSQLEFLPERHTDFIFAVLAEELGLVGILILLALYILLIMRGLWIAARAQTTFGRVMAGGLMLILFVYVFVNIGMVSGILPVVGVPLPLVSYGGSALIVLMAGFGIVMSIHTHRKMLSKSV |  |
